B1: CIgG4F3A1(G4S)1 (Fc fusion)
chain 1: GPPCPPCPAPEFLGGPSVFLFPPKPKDTLMISRTPEVTCVVVDVSQEDPEVQFNWYVDGVEVHNAKTKPREEQFNSTYRVVSVLTVLHQDWLNGKEYKCKVSNKGLPSSIEKTISKAKGQPREPQVYTLPPCQEEMTKNQVSLWCLVKGFYPSDIAVEWESNGQPENNYKTTPPVLDSDGSFFLYSRLTVDKSRWQEGNVFSCSVMHEALHNHYTQKSLSLSLGKGGGGSDVQLQESGGGLVQAGGSLKLSCAASRGSLSRWDVAWFRQAPGKERSFVTRISWSGTTSYYADAVKGRFAISRDNAKNTVYLQMNSLKPEDTAVYYCAVALYGNRGYYDVNAHSYWGQGTQVTVS
chain 2: GPPCPPCPAPEFLGGPSVFLFPPKPKDTLMISRTPEVTCVVVDVSQEDPEVQFNWYVDGVEVHNAKTKPREEQFNSTYRVVSVLTVLHQDWLNGKEYKCKVSNKGLPSSIEKTISKAKGQPREPQVCTLPPSQEEMTKNQVSLSCAVKGFYPSDIAVEWESNGQPENNYKTTPPVLDSDGSFFLVSRLTVDKSRWQEGNVFSCSVMHEALHNHYTQKSLSLSLGKGGGGSEVQLLESGGGLVQPGGSLRLSCAASGFTFGNYDMAWVRQAPGKRPEWVSSIDTGGDITHYADSVKGRFTISRDNAKNTLYLQMNSLRPEDTAVYWCATDEEYALGPNEFDYYGQGTLVTVSS
B2: CIgG4F3A1(RS) (Fc fusion)
chain 1: GPPCPPCPAPEFLGGPSVFLFPPKPKDTLMISRTPEVTCVVVDVSQEDPEVQFNWYVDGVEVHNAKTKPREEQFNSTYRVVSVLTVLHQDWLNGKEYKCKVSNKGLPSSIEKTISKAKGQPREPQVYTLPPCQEEMTKNQVSLWCLVKGFYPSDIAVEWESNGQPENNYKTTPPVLDSDGSFFLYSRLTVDKSRWQEGNVFSCSVMHEALHNHYTQKSLSLSLGKRSDVQLQESGGGLVQAGGSLKLSCAASRGSLSRWDVAWFRQAPGKERSFVTRISWSGTTSYYADAVKGRFAISRDNAKNTVYLQMNSLKPEDTAVYYCAVALYGNRGYYDVNAHSYWGQGTQVTVS
chain 2: GPPCPPCPAPEFLGGPSVFLFPPKPKDTLMISRTPEVTCVVVDVSQEDPEVQFNWYVDGVEVHNAKTKPREEQFNSTYRVVSVLTVLHQDWLNGKEYKCKVSNKGLPSSIEKTISKAKGQPREPQVCTLPPSQEEMTKNQVSLSCAVKGFYPSDIAVEWESNGQPENNYKTTPPVLDSDGSFFLVSRLTVDKSRWQEGNVFSCSVMHEALHNHYTQKSLSLSLGKRSEVQLLESGGGLVQPGGSLRLSCAASGFTFGNYDMAWVRQAPGKRPEWVSSIDTGGDITHYADSVKGRFTISRDNAKNTLYLQMNSLRPEDTAVYWCATDEEYALGPNEFDYYGQGTLVTVSS
B3: CIgG4F2A1(G4S)2 (Fc fusion)
chain 1: GPPCPPCPAPEFLGGPSVFLFPPKPKDTLMISRTPEVTCVVVDVSQEDPEVQFNWYVDGVEVHNAKTKPREEQFNSTYRVVSVLTVLHQDWLNGKEYKCKVSNKGLPSSIEKTISKAKGQPREPQVYTLPPCQEEMTKNQVSLWCLVKGFYPSDIAVEWESNGQPENNYKTTPPVLDSDGSFFLYSRLTVDKSRWQEGNVFSCSVMHEALHNHYTQKSLSLSLGKGGGGSGGGGSDVQLQESGGGLVQAGGSLKLSCAASGGSLSRYDMGWFRQAPGKEREFVARISWSGDTKYYADAVEGRFAISRDNAQNTVYLQMNSLKPEDTAVYYCAVALYGNRGYYDVNTYSYWGQGTRVTVS
chain 2: GPPCPPCPAPEFLGGPSVFLFPPKPKDTLMISRTPEVTCVVVDVSQEDPEVQFNWYVDGVEVHNAKTKPREEQFNSTYRVVSVLTVLHQDWLNGKEYKCKVSNKGLPSSIEKTISKAKGQPREPQVCTLPPSQEEMTKNQVSLSCAVKGFYPSDIAVEWESNGQPENNYKTTPPVLDSDGSFFLVSRLTVDKSRWQEGNVFSCSVMHEALHNHYTQKSLSLSLGKGGGGSGGGGSEVQLLESGGGLVQPGGSLRLSCAASGFTFGNYDMAWVRQAPGKRPEWVSSIDTGGDITHYADSVKGRFTISRDNAKNTLYLQMNSLRPEDTAVYWCATDEEYALGPNEFDYYGQGTLVTVSS
B4: CIgG4F3A1(G4S)2 (Fc fusion)
chain 1: GPPCPPCPAPEFLGGPSVFLFPPKPKDTLMISRTPEVTCVVVDVSQEDPEVQFNWYVDGVEVHNAKTKPREEQFNSTYRVVSVLTVLHQDWLNGKEYKCKVSNKGLPSSIEKTISKAKGQPREPQVYTLPPCQEEMTKNQVSLWCLVKGFYPSDIAVEWESNGQPENNYKTTPPVLDSDGSFFLYSRLTVDKSRWQEGNVFSCSVMHEALHNHYTQKSLSLSLGKGGGGSGGGGSDVQLQESGGGLVQAGGSLKLSCAASRGSLSRWDVAWFRQAPGKERSFVTRISWSGTTSYYADAVKGRFAISRDNAKNTVYLQMNSLKPEDTAVYYCAVALYGNRGYYDVNAHSYWGQGTQVTVS
chain 2: GPPCPPCPAPEFLGGPSVFLFPPKPKDTLMISRTPEVTCVVVDVSQEDPEVQFNWYVDGVEVHNAKTKPREEQFNSTYRVVSVLTVLHQDWLNGKEYKCKVSNKGLPSSIEKTISKAKGQPREPQVCTLPPSQEEMTKNQVSLSCAVKGFYPSDIAVEWESNGQPENNYKTTPPVLDSDGSFFLVSRLTVDKSRWQEGNVFSCSVMHEALHNHYTQKSLSLSLGKGGGGSGGGGSEVQLLESGGGLVQPGGSLRLSCAASGFTFGNYDMAWVRQAPGKRPEWVSSIDTGGDITHYADSVKGRFTISRDNAKNTLYLQMNSLRPEDTAVYWCATDEEYALGPNEFDYYGQGTLVTVSS
B5: CIgG4F2A1(G4S)3 (Fc fusion)
chain 1: GPPCPPCPAPEFLGGPSVFLFPPKPKDTLMISRTPEVTCVVVDVSQEDPEVQFNWYVDGVEVHNAKTKPREEQFNSTYRVVSVLTVLHQDWLNGKEYKCKVSNKGLPSSIEKTISKAKGQPREPQVYTLPPCQEEMTKNQVSLWCLVKGFYPSDIAVEWESNGQPENNYKTTPPVLDSDGSFFLYSRLTVDKSRWQEGNVFSCSVMHEALHNHYTQKSLSLSLGKGGGGSGGGGSGGGGSDVQLQESGGGLVQAGGSLKLSCAASGGSLSRYDMGWFRQAPGKEREFVARISWSGDTKYYADAVEGRFAISRDNAQNTVYLQMNSLKPEDTAVYYCAVALYGNRGYYDVNTYSYWGQGTRVTVS
chain 2: GPPCPPCPAPEFLGGPSVFLFPPKPKDTLMISRTPEVTCVVVDVSQEDPEVQFNWYVDGVEVHNAKTKPREEQFNSTYRVVSVLTVLHQDWLNGKEYKCKVSNKGLPSSIEKTISKAKGQPREPQVCTLPPSQEEMTKNQVSLSCAVKGFYPSDIAVEWESNGQPENNYKTTPPVLDSDGSFFLVSRLTVDKSRWQEGNVFSCSVMHEALHNHYTQKSLSLSLGKGGGGSGGGGSGGGGSEVQLLESGGGLVQPGGSLRLSCAASGFTFGNYDMAWVRQAPGKRPEWVSSIDTGGDITHYADSVKGRFTISRDNAKNTLYLQMNSLRPEDTAVYWCATDEEYALGPNEFDYYGQGTLVTVSS
B6: CIgG4F3A1(G4S)3 (Fc fusion)
chain 1: GPPCPPCPAPEFLGGPSVFLFPPKPKDTLMISRTPEVTCVVVDVSQEDPEVQFNWYVDGVEVHNAKTKPREEQFNSTYRVVSVLTVLHQDWLNGKEYKCKVSNKGLPSSIEKTISKAKGQPREPQVYTLPPCQEEMTKNQVSLWCLVKGFYPSDIAVEWESNGQPENNYKTTPPVLDSDGSFFLYSRLTVDKSRWQEGNVFSCSVMHEALHNHYTQKSLSLSLGKGGGGSGGGGSGGGGSDVQLQESGGGLVQAGGSLKLSCAASRGSLSRWDVAWFRQAPGKERSFVTRISWSGTTSYYADAVKGRFAISRDNAKNTVYLQMNSLKPEDTAVYYCAVALYGNRGYYDVNAHSYWGQGTQVTVS
chain 2: GPPCPPCPAPEFLGGPSVFLFPPKPKDTLMISRTPEVTCVVVDVSQEDPEVQFNWYVDGVEVHNAKTKPREEQFNSTYRVVSVLTVLHQDWLNGKEYKCKVSNKGLPSSIEKTISKAKGQPREPQVCTLPPSQEEMTKNQVSLSCAVKGFYPSDIAVEWESNGQPENNYKTTPPVLDSDGSFFLVSRLTVDKSRWQEGNVFSCSVMHEALHNHYTQKSLSLSLGKGGGGSGGGGSGGGGSEVQLLESGGGLVQPGGSLRLSCAASGFTFGNYDMAWVRQAPGKRPEWVSSIDTGGDITHYADSVKGRFTISRDNAKNTLYLQMNSLRPEDTAVYWCATDEEYALGPNEFDYYGQGTLVTVSS

In this assay the target is T1, recombinant human IgE (human, UniProt P01854-1 1-428).
T1 construct: made in-house (ALK); preloaded on immobilised FcεRIα in the displacement ELISA
T1 sequence (P01854 other isoform, or with tags, fused parts or gaps): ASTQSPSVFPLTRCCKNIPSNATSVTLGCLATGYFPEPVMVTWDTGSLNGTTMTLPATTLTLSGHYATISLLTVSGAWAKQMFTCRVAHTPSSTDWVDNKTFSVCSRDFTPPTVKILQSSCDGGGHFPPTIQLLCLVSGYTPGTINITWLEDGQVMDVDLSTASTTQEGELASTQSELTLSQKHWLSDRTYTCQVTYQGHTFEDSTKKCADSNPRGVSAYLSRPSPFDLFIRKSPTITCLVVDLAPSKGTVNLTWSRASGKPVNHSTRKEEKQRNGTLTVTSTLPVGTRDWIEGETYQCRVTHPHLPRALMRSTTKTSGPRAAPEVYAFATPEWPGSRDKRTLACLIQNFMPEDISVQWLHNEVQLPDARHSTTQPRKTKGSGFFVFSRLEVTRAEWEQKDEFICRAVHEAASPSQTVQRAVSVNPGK
In words: IgE-FcεRIα displacement ELISA. Put shortly:
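Streptavidin-coated plates carried site-specifically biotinylated recombinant human FcεRIα, loaded with recombinant human IgE at 13 ng/ml. sdAbs in a pM–μM series were added for 1 h, and displaced IgE was washed off. Percent displacement was the signal reduction versus the no-sdAb control, giving EC50 and maximal effect.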
Consider B1, for which the EC50 came out at 1000 nM and the Max effect is 50%. Consider B2, for which the Max effect was 30%.

As for B3, the Max effect was 35%.

In the case of B4, the EC50 stood at 41 nM and the Max effect was found to be 80%.

Consider B5, for which the Max effect was 45%. As to B6, the concentration giving a half-maximal response (EC50) worked out at 24 nM and the Max effect turned out to be 90%.

The values are drawn from patent US20250171562A1 (ALK ABELL, published 2025).
